Here are results for 2 proteins from publication PMC3560613.

Substrate in this series: Nc1ccn([C@@H]2O[C@H](COP(=O)(O)OP(=O)(O)OP(=O)(O)O)[C@@H](O)[C@H]2O)c(=O)n1
Put plainly: purified protein. The conditions noted are these: 20 mM glycerol phosphate, 6 mM MgCl2, 20 mM Tris-HCl pH 8, 37°C.

B1: EfGCT (Enterococcus faecalis glycerol 3-phosphate cytidylyltransferase) (Enterococcus faecalis V583) (protein)
chain: MKKILTYGTFDLLHYGHINLLKKAKQQGDYLIVGLSTDAFNLEKKKQSYFSYEKRKQLLEAIRYVDLVIPETSWKQKVSDIAEFKIDTLVMGDDWQGAFDFLEVETTAKVLYLPRTPEVSTTQIKKELYYSE
A word on the Km: it is the concentration of substrate that gives half-maximal velocity. As a reminder, the kcat is the maximal rate divided by the concentration of active sites. With B1, the Km was found to be 2420 µM and the kcat is 1.51 s⁻¹.

B2: LmGCT (Listeria monocytogenes glycerol 3-phosphate cytidylyltransferase) (Listeria monocytogenes EGD-e) (protein)
chain: MKKVITYGTFDLLHWGHIHLLKRAKALGDYLIVAISSDEFNRIKHKEAYHSYEHRKLIIEAIRYVDEVIPENNWEQKRDDIEKYGIDVFVMGDDWEGEFDFLKDVCEVVYLPRTEGISTSQIKDELK
Regarding B2, the Km worked out at 1520 µM and the kcat was 4.15 s⁻¹.
